Reference: patent US20070014720A1 (published 2007)
Where a chain is given by its changes, count along the chain named.

T1: human CD20 (human, UniProt P11836 1-297)
T1 sequence (looked up): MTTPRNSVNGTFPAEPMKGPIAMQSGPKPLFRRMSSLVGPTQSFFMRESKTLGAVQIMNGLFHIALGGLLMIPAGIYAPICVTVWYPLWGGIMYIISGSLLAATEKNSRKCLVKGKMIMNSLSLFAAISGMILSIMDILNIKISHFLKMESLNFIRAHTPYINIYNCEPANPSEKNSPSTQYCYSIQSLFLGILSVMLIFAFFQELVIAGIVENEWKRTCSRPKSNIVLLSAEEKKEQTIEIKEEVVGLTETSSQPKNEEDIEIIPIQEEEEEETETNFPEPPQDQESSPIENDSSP

B1: mAb 1.12.3 (antibody, human IgG1, V domains shown)
VH: EVQLVQSGAEVKKPGESLKISCKGSGYSFTSYWIGWVRQMSGKGLEWMGIIYPGDSDTRYSPSFQGQVTISADKSISTAYLQWSSLKASDTAIYYCARHPSYGSGSPNFDYWGQGTLVTVSS
VL: DIVMTQTPLSSPVTLGQPASISCRSSQSLVYSDGNTYLSWLQQRPGQPPRLLFYKISNRFSGVPDRFSGSGAGTDFTLKISRVEAEDVGVYYCVQATQFPLTFGGGTKVEIK
B2: mAb 1.4.3 (antibody, human IgG1, V domains shown)
VH: B1 VH with S41P, S77T, I93M
VL: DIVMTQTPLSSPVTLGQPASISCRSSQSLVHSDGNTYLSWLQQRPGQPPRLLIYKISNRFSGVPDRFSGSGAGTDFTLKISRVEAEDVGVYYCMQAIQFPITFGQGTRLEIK
B3: mAb 2.2.2 (antibody, human IgG1, V domains shown)
VH: EVQLVQSGAEVKKPGESLKISCKGSGYSFTSYWIGWVRQMPGKGLEWMGIIYPGDSDTKYSPSFQGQVTISADKSISTAYLQWSSLKASDTAMYYCARQGDFWSGNGGMDVWGQGTTVTVSS
VL: B1 VL with Y31S, S32R, F53I, A85V, V94M, L101I, G105Q, K108R, V109L
B4: mAb 2.4.1 (antibody, human IgG1, V domains shown)
VH: EVQLVQSGAEVKKPGESLKISCKGSGYSFTNYWIGWVRQMPGKGLEWMGIIYPGDSDTRYSPSFQGQVTISADKSISTAYLQWSSLKASDTAMYYCARHGDYYASESSAFDIWGQGTMVTVSS
VL: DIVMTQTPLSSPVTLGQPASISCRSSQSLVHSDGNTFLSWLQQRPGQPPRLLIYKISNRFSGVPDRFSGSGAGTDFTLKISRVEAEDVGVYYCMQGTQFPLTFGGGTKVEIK
B5: mAb 1.6.2 (antibody, human IgG1, V domains shown)
VH: EVQLVQSGAEVKKPGESLKISCKGSGYSFTSYWIGWVRQMPGKGLEWMGIIYPGDSDTRYSPSFQGQVTISADKSISTAYLQWSSLKASDTAMYYCARHGDYSNIDAFDIWGQGTMVTVSS
VL: DVVMTQSPLSLPVTLGQPASISCRSSQSLVYSDGNAYLNWFQQRPGQSPRRLIYKVSNWDSGVPDRFSGSGSGTDFTLKIRRVEAEDVGAYYCMQGIHCTFGPGTKVHIK

Target: T1, human CD20
Assay: cell-based or functional assay

Binder	% Lysis Daudi 0.001 µg/ml ADCC [%]	% Lysis Daudi 1 µg/ml ADCC [%]	% Lysis Raji 0.001 µg/ml ADCC [%]	% Lysis Raji 1 µg/ml ADCC [%]	% Lysis Ramos 0.001 µg/ml ADCC [%]	% Lysis Ramos 1 µg/ml ADCC [%]	EC50 µg/ml Daudi CDC [µg/mL]	EC50 µg/ml Raji CDC [µg/mL]	EC50 µg/ml Ramos Apoptosis Alamar Blue [µg/mL]	EC50 µg/ml Ramos Apoptosis Annexin V [µg/mL]
B1	17	63	3	10	2	29	9.39	1.31	0.026	0.191
B2	62	72	7	37	4	52	~10	1.3	0.11	2.86
B3	60	79	7	44	12	65	1.66	0.5	0.0207	0.373
B4	36	76	9	24	-3	46	~10	3.72	0.112	4.68
B5	77	79	5	36	3	43	~10	0.38	0.16	0.67

Same assay, conditions: not given

Binder	EC50 µg/ml Ramos Apoptosis Cell Titer Glo [µg/mL]	EC50 µg/ml Ramos Apoptosis WST-1 [µg/mL]	EC50 µg/ml Ramos CDC [µg/mL]
B1	0.0989	0.0383	2.07
B2	0.342	0.0514	13.1
B3	0.139	0.00076	1.03
B4	0.983	0.042	3.12
B5	0.476	0.0393	0.31
